“Also recorded” adds a separate entry of the source. Where two headings read alike, the source gives them in different places.

By EC50 is commonly meant the concentration needed to bring the measured effect to its halfway point.

One experiment has as its system HAB1. Put plainly: Y2H X-gal staining of evolved sensors: ligand responsiveness and cross reaction. The experiment is classed as cell-based, Arabidopsis. Particulars: Y2H, FIG. 7; WIN 55,212-2 or 4F-MDMB-BUTINACA
The method, then:
(§1) High-affinity sensors were tested for cross reaction using both Y2H and in vitro PP2C assays. […] Similar methods were used to characterize PYR1^PIRI and PYR1^WIN sensor selectivity and sensitivity.
The PYL2 coding sequence cloned in the Y2H pBD vector was used as template to incorporate the corresponding PYR1^WIN and PYR1^4F homologous residues via site directed mutagenesis using the QuikChange Lightning Multi Site-Directed mutagenesis kit (Agilent Technologies). Resulting clones PYL2^WIN (K64Q, F165A, V1661) and PYL2^4F (H119Q, Y124G, F165V, V166G) were sequence confirmed and incorporated into MAV99 harboring pACT-HAB1 and tested for ligand activation using uracil-independent growth and X-gal staining experiments. The same method was used to generate a PYL2^WIN version in a protein expression vector for crystallization studies.

A further experiment has as its system Luc^N-PYR1/Luc^C-ΔN-HAB1. Put plainly: In vivo split NanoLuc luciferase complementation in yeast. The experiment is classed as cell-based, S. cerevisiae. Conditions: read-out: EC50 split luciferase reconstitution. The method, then:
Ligand was added to yeast cultures 12 h prior to measuring cell luminescence. A sample of each culture was diluted to an OD600 of 0.2, 10 μL of which was transferred to a 96-well plate, the luciferase reagent mixture (Nano-Glo live cell substrate; Promega) diluted to a 1× concentration with DI water was added to the cell sample to a final volume of 200 μL. The relative luminescence signal (RLU) was measured using a Synergy™ Neo2 Multi-Mode Microplate Reader in luminescence detection mode for 30 minutes after the addition of the reagents. The RLU of each measured sample was taken as the average value of the time course once the signal had reached a plateau.
A protein complementation output assay of evolved PYR-based sensors was carried out by NanoLuc split luciferase (19). The larger fragment, LgBit (or Luc^N), was fused to N-terminus of PYR1 variants, while the small fragment, SmBit (or Luc^C) was fused to N-terminus of ΔN-HAB1. […] Ligand was added to yeast cultures 12 hour prior to measuring cell luminescence. […] The relative luminescence signal (RLU) was immediately measured continuously in a Synergy™ Neo2 Multi-Mode Microplate Reader over 30 minutes. The average value of RLU of each measured sample was taken once the measurements had reached a stable value. […]

Another experiment concerns ΔN-HAB1. Put plainly: Ligand/receptor-mediated PP2C (ΔN-HAB1 phosphatase) inhibition by recombinant PYR1 sensors. The experiment is classed as biochemical, Arabidopsis. Particulars: for response of evolved organophosphate receptors to native ligand ABA: HAB1 inhibition and Y2H assays, ABA tested at 5000 nM in Y2H; for EC50: read-out: EC50, receptor-mediated inhibition of HAB1 phosphatase activity in vitro. The method, then:
Coding sequences of the cannabinoid sensors were cloned into the protein expression vector pET28a to encode 6×His-tag-receptor fusions.
as §1

B1: PYL2^WIN: PYL2 sensor (K64Q, F165A, V1661), SEQ ID NO: 37 (protein)
chain: MSSSPAVKGLTDEEQKTLEPVIKTYHQFEPDPTTCTSLITQRIHAPASVVWPLIRRFDNPERYQHFVKRCRLISGDGDVGSVREVTVISGLPASTSTERLEFVDDDHRVLSFRVVGGEHRLKNYKSVTSVNEFLNQDSGKVYTVVLESYTVDIPEGNTEEDTKMAIDTVVKLNLQKLGVAATSAPMHDDE
On to B1, for which the “ligand responsiveness of PYL2 transposed sensors” value with HAB1 is reported as “nM ligand responsiveness”.

B2: PYR1^DIAZI (protein)
chain: MPSELTPGERSELKNSIAEFHTYQLDPGSCSSLHAQRIHAPPELVWSIVRRFDKPQTYKHFIKSCSVEQNFEMRVGCTRDYIVISGMPANTSTERLDILDDERRVTGYSIIGGEHRLTNYKSVTTVHRFEKENRIWTVVLESYVVDMPEGNSEDDTRVGVDTVVKLNLQKLATVAEAMARNSGDGSGSQVT
Take B2: the EC50 with Luc^N-PYR1/Luc^C-ΔN-HAB1 (Luc^N-PYR1^DIAZI/Luc^C-HAB1 in yeast, ligand diazinon) worked out at 24 nM; at ΔN-HAB1 (sensor PYR1^DIAZI, ligand diazinon), 36 nM. Further, the “response of evolved organophosphate receptors to native ligand ABA” value in the experiment with ΔN-HAB1 is given as “no longer bind the native ligand ABA; also recorded: neither receptor was activated by ABA”.

B3: PYR1^PIRI (protein)
chain: MPSELTPEERSELKNSIAEFHTYQLDPGSCSSLHAQRIHAPPELVWSIVRRFDKPQTYRHFIKSCSVEQNFEMRVGCTRDVIVISGLPANTMTERLDILDDERRVTGFSIIGGEHRLTSYKQVTTVHRFGKENRIWTVVLESYVVDMPEGNSEDDTRMTTDTVVKLNLQKLATAAEAMARNSGDGSGSQVT
On to B3, for which the EC50 in the experiment with Luc^N-PYR1/Luc^C-ΔN-HAB1 (Luc^N-PYR1^PIRI/Luc^C-HAB1 in yeast, ligand pirimiphos-methyl) is 19 nM; at ΔN-HAB1 (sensor PYR1^PIRI, ligand pirimiphos-methyl) it was 58 nM. Moreover, in the experiment on ΔN-HAB1, the “response of evolved organophosphate receptors to native ligand ABA” value is “no longer bind the native ligand ABA; also recorded: neither receptor was activated by ABA”.

The record behind these values is patent US20260258397A1, “REAGENTS AND SYSTEMS FOR […]” (priority 2023, published 2026).
